Drawing on the Immune Epitope Database (IEDB), this text covers Kd and IC50 for 44 sequences.

Where only a bound is given, the exact number is not on record here.

One test addresses HLA-B*40:01. In words: IEDB peptide-MHC binding, purified MHC/competitive/radioactivity; filed as Kd, often an IC50 or EC50 that approximates it; ≥ and ≤ were set here for values at or beyond the usual limits of such assays.
The target in another test is HLA-B*44:02. Described as above.
The target in the next test is HLA-B*44:03. The test is described as above.
Another test concerns the target HLA-A*32:01. Described as above.
The target in a further test is HLA-A*69:01. In words: IEDB peptide-MHC binding, purified MHC/direct/fluorescence; filed as Kd, often an IC50 or EC50 that approximates it; ≥ and ≤ were set here for values at or beyond the usual limits of such assays.
The target of another test is HLA-B*15:01. The test is described as above.
In a further test the target is HLA-B*07:02. Described as above. Conditions: source organism: Haemophilus influenzae.
Test [1] concerns the target HLA-A*02:01. The test is described as above.
Another test addresses HLA-B*08:01. In words: IEDB peptide-MHC binding, purified MHC/competitive/radioactivity; filed as Kd, often an IC50 or EC50 that approximates it; ≥ and ≤ were set here for values at or beyond the usual limits of such assays.
Test [2] concerns the target HLA-A*02:01. Put plainly: IEDB peptide-MHC binding, purified MHC/competitive/fluorescence; ≥ and ≤ were set here for values at or beyond the usual limits of such assays.
For the next test, the target named is HLA-A*26:01. Put plainly: IEDB peptide-MHC binding, purified MHC/competitive/radioactivity; filed as Kd, often an IC50 or EC50 that approximates it; ≥ and ≤ were set here for values at or beyond the usual limits of such assays. The following applies: source organism: Dengue virus 2 Jamaica/1409/1983.
For the next test, the target named is HLA-A*03:01. In words: IEDB peptide-MHC binding, purified MHC/direct/fluorescence; filed as Kd, often an IC50 or EC50 that approximates it; ≥ and ≤ were set here for values at or beyond the usual limits of such assays. Conditions: source organism: Pasteurella multocida.
In a further test the target is HLA-B*58:01. Described as above. Conditions: source organism: Pasteurella multocida.
For another test, the target named is HLA-A*31:01. Put plainly: IEDB peptide-MHC binding, purified MHC/competitive/radioactivity; filed as Kd, often an IC50 or EC50 that approximates it; ≥ and ≤ were set here for values at or beyond the usual limits of such assays. Conditions: source organism: Dengue virus 4 Philippines/H241/1956.
The next test has as its target HLA-A*33:01. The description is as above. Conditions: source organism: Dengue virus 4 Philippines/H241/1956.
[3] abbreviates: source organism: Dengue virus 1 Brazil/97-11/1997.
The mark [4] stands for this setting: source organism: Dengue virus 3 Martinique/1243/1999.
Where [5] appears, read: source organism: Dengue virus 4 Dominica/814669/1981.
The mark [6] stands for this setting: source organism: Vaccinia virus WR.
The mark [7] stands for this setting: source organism: Haemophilus influenzae.
Where [8] appears, read: source organism: Rickettsia conorii.
The mark [9] stands for this setting: source organism: Camelpox virus M-96.
Setting [10] is: source organism: Dengue virus 2 Jamaica/1409/1983.
[11] abbreviates: source organism: Zaire ebolavirus.
[12] abbreviates: source organism: Dengue virus 4 Philippines/H241/1956.
Where [13] appears, read: source organism: Sudan ebolavirus.
Setting [14] is: source organism: Pasteurella multocida.
The mark [15] stands for this setting: source organism: Dengue virus 1 Singapore/S275/1990.

Broadly, the Kd is the free concentration of one partner at which half of the binding sites on the other are occupied at equilibrium, for simple one-to-one binding. AEALKGMPI: the Kd with HLA-B*40:01 (setting [3]) came out at 122 nM; with HLA-B*44:02 (setting [3]) it was 1.01 nM.
For the sequence AEIPLQWIAS, the Kd worked out at 2240 nM with HLA-B*40:01 (setting [4]) and 200 nM with HLA-B*44:02 (setting [4]).
Take AENTNSVTNI: the Kd with HLA-B*44:03 (setting [5]) was found to be 372 nM; with HLA-B*40:01 (setting [5]), 461 nM; with HLA-B*44:02 (setting [5]), 130 nM.
Regarding AIIAIVFVF, in the test with HLA-A*32:01 (setting [6]), the Kd came out at 14100 nM.
As for AILGVLATL, the Kd with HLA-A*69:01 (setting [7]) was 238 nM; with HLA-B*15:01 (setting [7]), 18500 nM; in the test with HLA-B*07:02 it was 12700 nM; with HLA-A*02:01 [1] (setting [7]) it was 316 nM.
As for ASKVFFGPI, in the test with HLA-B*08:01 (setting [6]), the Kd turned out to be 12800 nM.
ATIQRFSSL: the Kd with HLA-B*08:01 (setting [6]) worked out at 3.34 nM.
With CIVNKFMSF, in the test with HLA-B*08:01 (setting [6]), the Kd came to 60.4 nM.
For the sequence DLAAGVDVV, the Kd with HLA-A*69:01 (setting [8]) is 1460 nM; with HLA-A*02:01 [1] (setting [8]) it was 3240 nM.
Consider DLYDYITRI, for which the Kd with HLA-A*69:01 (setting [9]) worked out at 35.3 nM; with HLA-A*02:01 [1] (setting [9]), 101 nM.
On to EEEEQTLTI, for which the Kd with HLA-B*40:01 (setting [10]) amounted to 103 nM.
By IC50 is commonly meant the concentration that gives 50% inhibition. Read a low IC50 as greater potency in that assay. As for ELDHLGLDD, the IC50 with HLA-A*02:01 [2] (setting [11]) was ≥ 513000 nM.
As to EPIKHKYPL, in the test with HLA-B*08:01 (setting [6]), the Kd is 1.27 nM.
As to EQMAPHHKIL, the Kd with HLA-B*08:01 (setting [12]) is 59.7 nM.
On to ETRTETWMSS, for which the Kd with HLA-A*32:01 (setting [10]) was 12800 nM; with HLA-A*26:01, 693 nM.
Sequence FLLRRWGGT yielded an IC50 with HLA-A*02:01 [2] (setting [13]) of 2020 nM.
Regarding FTNAGIVAY, the Kd in the test with HLA-A*32:01 (setting [6]) is 149 nM.
With GTFKKSGAI, the Kd in the test with HLA-A*32:01 (setting [4]) is 4930 nM.
For the sequence HKQWFLDLPL, the Kd in the test with HLA-B*08:01 (setting [3]) amounted to 57 nM.
On to HTILYNNTI, for which the Kd in the test with HLA-A*32:01 (setting [6]) is 1.88 nM.
ILYVSCNPA: the Kd with HLA-A*69:01 (setting [14]) came to 572 nM; in the test with HLA-A*03:01 it was 402 nM; in the test with HLA-B*15:01 (setting [14]), 748 nM; with HLA-B*58:01, 572 nM.
As to ITQFETYQL, the dissociation constant Kd with HLA-A*32:01 (setting [4]) was 1630 nM.
In the case of ITYEKSNNI, the Kd in the test with HLA-A*32:01 (setting [6]) was 17.5 nM.
With KEEYVDYMPV, the Kd with HLA-B*40:01 (setting [12]) was found to be 68.7 nM.
On to KEISSMLNIM, for which the Kd in the test with HLA-B*40:01 (setting [3]) worked out at 11.1 nM.
As to KGEDGCWYGM, the Kd with HLA-A*32:01 (setting [15]) is 1880 nM.
With KLDISEATQ, the IC50 in the test with HLA-A*02:01 [2] (setting [11]) was ≥ 96700 nM.
On the same count and under the same terms, as for KSTDFLDPA, the figure is 5050 nM.
Regarding KTIFLSEPY, the Kd with HLA-A*32:01 (setting [6]) worked out at 2.9 nM.
LAKLTEAIT registered an IC50 in the test with HLA-A*02:01 [2] (setting [11]) of 68400 nM.
Same read-out and setting: with LDISEATQV the figure was ≥ 72600 nM.
For the sequence LKKNKAIKIL, the Kd in the test with HLA-B*08:01 (setting [12]) amounted to 11000 nM.
LMINNMHSI: the Kd with HLA-A*32:01 (setting [6]) was 13800 nM.
Take MEEALRGLPI: the Kd in the test with HLA-B*44:03 (setting [10]) amounted to 1110 nM; with HLA-B*40:01 (setting [10]), 54.2 nM; with HLA-B*44:02 (setting [10]) it was 29.3 nM.
For MEVTARWLWG, the Kd with HLA-A*32:01 (setting [15]) came to 3720 nM.
In the case of MFGGVSWMVR, the Kd in the test with HLA-A*32:01 (setting [12]) turned out to be 952 nM; with HLA-A*31:01, 17.2 nM; in the test with HLA-A*33:01, 4.59 nM.
Regarding MGLDKGWPIS, the Kd with HLA-A*32:01 (setting [3]) was 10100 nM.
As for MLNYVDYNI, the Kd with HLA-A*32:01 (setting [6]) turned out to be 1.59 nM.
For the sequence NCSSISIKL, in the test with HLA-A*02:01 [2] (source organism: Vaccinia virus Copenhagen), the IC50 was ≥ 437000 nM.
In the case of NIMPLFPTF, the Kd with HLA-B*08:01 (setting [6]) was 48.1 nM.
QFLLQLNET registered an IC50 in the test with HLA-A*02:01 [2] (setting [11]) of 16100 nM.
Turning to QLAYVVIGIL, the Kd with HLA-B*08:01 (setting [4]) is ≥ 10000 nM.
As for QLLLMRTSW, the Kd with HLA-A*32:01 (setting [4]) is 10.4 nM.
In the test with HLA-A*02:01 [2] (setting [13]), RGVNFAEGV registered an IC50 of 32900 nM.
